Source: patent publication US5622933A, “Multiple branch peptide constructions for use against HIV” (priority 1993, dated 1997)
Several values for one entry are separate records, joined by “and”; a condition that tells them apart may be missing. Equal entries are not always repeated.

What was measured:
New Zealand rabbits = assay: Immunogenicity in rabbits (serum ELISA for anti MBPC.3 antibodies); type: in vivo, rabbit
Description: […] This procedure was repeated subcutaneously with incomplete Freud's adjuvant on days 30, 60, 90 and 120. Sera were tested by ELISA, looking for specific anti MBPC.3 antibodies. Data presented here is from the last serum samples (120+7 days).
[…] After saturation with 400 μL of casein (5 g/100 ml), different serum dilutions were added for 2 hours at 37° C. The controls were sera from non-immunized rabbits and mice. After rinsing (5×), 50 μl of 1:5000 of peroxidase-labeled swine anti-rabbit IgG or anti-mouse IgG (Dakopatts, Copenhagen, Denmark) were added for 1 hour at 37° C. After further rinsing (5×), 100 μl of ortho-phenylenediamine were added for 30 min in the dark at room temperature. The reaction was stopped by adding 50 μl of 4N sulfuric acid, and optical density (OD) ratios were determined at 492/620 nm.

HIV-1 (LAI) = assay: Fusion between chronically infected CEM cells and MT-2 cells; type: cell-based; conditions: separate tests
[1] = system: Peripheral blood lymphocytes (PBL); assay: PBL antigen and mitogen induced proliferation ([3H]thymidine incorporation); type: cell-based, human; conditions: MBPCs 5×10^-6 M
Description: Peripheral blood lymphocytes (PBL) from 3 healthy HIV sero-negative donors were isolated from heparinized blood by the Ficoll-Hypaque technique. The culture medium was RPMI 1640 supplemented with 1% glutamine, 1% antibiotics and 10% heat inactivated fetal calf serum. Cells (10^5) were incubated in the presence of MBPCs (5×10^-6 M) with or without antigen (candidine, PPD) or mitogen (PHA). Antigen or mitogen treated cells were pulsed for eight hours with […] of [3H] thymidine. Then cells were harvested and [3H] thymidine incorporation in DNA was counted. […]

(GPGRAF)8 -(K)4 -(K)2 -K-βA-OH [MBPC.3] was tested, and the “optical density (OD) ratio 492/620 nm (×10^3)” value (New Zealand rabbits; plate 1, rabbit serum 10^-2, coat 0.5 μg MBPC.3/ml) was 968 and 981, the “optical density (OD) ratio 492/620 nm (×10^3)” value (New Zealand rabbits; plate 1, rabbit serum 10^-2, coat 1 μg MBPC.3/ml) was 1280 and 1267 and the “optical density (OD) ratio 492/620 nm (×10^3)” value (New Zealand rabbits; plate 1, rabbit serum 10^-2, coat 5 μg MBPC.3/ml) was 2000. For the same substance, the “optical density (OD) ratio 492/620 nm (×10^3)” value (New Zealand rabbits; plate 1, rabbit serum 10^-2, coat 10 μg MBPC.3/ml) was 2000, the “optical density (OD) ratio 492/620 nm (×10^3)” value (New Zealand rabbits; plate 1, rabbit serum 10^-3, coat 0.5 μg MBPC.3/ml) was 318 and 296 and the “optical density (OD) ratio 492/620 nm (×10^3)” value (New Zealand rabbits; plate 1, rabbit serum 10^-3, coat 1 μg MBPC.3/ml) was 346 and 349. For the same substance, the “optical density (OD) ratio 492/620 nm (×10^3)” value (New Zealand rabbits; plate 1, rabbit serum 10^-3, coat 5 μg MBPC.3/ml) was 2000, the “optical density (OD) ratio 492/620 nm (×10^3)” value (New Zealand rabbits; plate 1, rabbit serum 10^-3, coat 10 μg MBPC.3/ml) was 2000 and the “optical density (OD) ratio 492/620 nm (×10^3)” value (New Zealand rabbits; plate 1, rabbit serum 10^-4, coat 0.5 μg MBPC.3/ml) was 145 and 140. For the same substance, the “optical density (OD) ratio 492/620 nm (×10^3)” value (New Zealand rabbits; plate 1, rabbit serum 10^-4, coat 1 μg MBPC.3/ml) was 182 and 193, the “optical density (OD) ratio 492/620 nm (×10^3)” value (New Zealand rabbits; plate 1, rabbit serum 10^-4, coat 5 μg MBPC.3/ml) was 796 and 809 and the “optical density (OD) ratio 492/620 nm (×10^3)” value (New Zealand rabbits; plate 1, rabbit serum 10^-4, coat 10 μg MBPC.3/ml) was 924 and 823. The “optical density (OD) ratio 492/620 nm (×10^3)” value (New Zealand rabbits; plate 2, rabbit serum 10^-2, coat 5 μg MBPC.3/ml) was 2000, the “optical density (OD) ratio 492/620 nm (×10^3)” value (New Zealand rabbits; plate 2, rabbit serum 10^-2, coat 10 μg MBPC.3/ml) was 2000 and the “optical density (OD) ratio 492/620 nm (×10^3)” value (New Zealand rabbits; plate 2, rabbit serum 10^-3, coat 0.5 μg MBPC.3/ml) was 197 and 181. For the same substance, the “optical density (OD) ratio 492/620 nm (×10^3)” value (New Zealand rabbits; plate 2, rabbit serum 10^-3, coat 5 μg MBPC.3/ml) was 2000, the “optical density (OD) ratio 492/620 nm (×10^3)” value (New Zealand rabbits; plate 2, rabbit serum 10^-3, coat 10 μg MBPC.3/ml) was 2000 and the “optical density (OD) ratio 492/620 nm (×10^3)” value (New Zealand rabbits; plate 2, rabbit serum 10^-4, coat 0.5 μg MBPC.3/ml) was 80 and 74. The “optical density (OD) ratio 492/620 nm (×10^3)” value (New Zealand rabbits; plate 2, rabbit serum 10^-4, coat 1 μg MBPC.3/ml) was 113 and 84, the “optical density (OD) ratio 492/620 nm (×10^3)” value (New Zealand rabbits; plate 2, rabbit serum 10^-4, coat 5 μg MBPC.3/ml) was 678 and 626 and the “optical density (OD) ratio 492/620 nm (×10^3)” value (New Zealand rabbits; plate 2, rabbit serum 10^-4, coat 10 μg MBPC.3/ml) was 734 and 689. The “optical density (OD) ratio 492/620 nm (×10^3)” value (New Zealand rabbits; plate 3, rabbit serum 10^-2, coat 0.5 μg MBPC.3/ml) was 416 and 287, the “optical density (OD) ratio 492/620 nm (×10^3)” value (New Zealand rabbits; plate 3, rabbit serum 10^-2, coat 1 μg MBPC.3/ml) was 402 and 401 and the “optical density (OD) ratio 492/620 nm (×10^3)” value (New Zealand rabbits; plate 3, rabbit serum 10^-2, coat 5 μg MBPC.3/ml) was 857 and 868. The “optical density (OD) ratio 492/620 nm (×10^3)” value (New Zealand rabbits; plate 3, rabbit serum 10^-2, coat 10 μg MBPC.3/ml) was 818 and 953, the “optical density (OD) ratio 492/620 nm (×10^3)” value (New Zealand rabbits; plate 3, rabbit serum 10^-3, coat 0.5 μg MBPC.3/ml) was 148 and 155 and the “optical density (OD) ratio 492/620 nm (×10^3)” value (New Zealand rabbits; plate 3, rabbit serum 10^-3, coat 1 μg MBPC.3/ml) was 168 and 150. The “optical density (OD) ratio 492/620 nm (×10^3)” value (New Zealand rabbits; plate 3, rabbit serum 10^-3, coat 5 μg MBPC.3/ml) was 323 and 314, the “optical density (OD) ratio 492/620 nm (×10^3)” value (New Zealand rabbits; plate 3, rabbit serum 10^-3, coat 10 μg MBPC.3/ml) was 342 and 328 and the “optical density (OD) ratio 492/620 nm (×10^3)” value (New Zealand rabbits; plate 3, rabbit serum 10^-4, coat 0.5 μg MBPC.3/ml) was 64 and 69. The “optical density (OD) ratio 492/620 nm (×10^3)” value (New Zealand rabbits; plate 3, rabbit serum 10^-4, coat 1 μg MBPC.3/ml) was 72 and 89, the “optical density (OD) ratio 492/620 nm (×10^3)” value (New Zealand rabbits; plate 3, rabbit serum 10^-4, coat 5 μg MBPC.3/ml) was 170 and 169 and the “optical density (OD) ratio 492/620 nm (×10^3)” value (New Zealand rabbits; plate 3, rabbit serum 10^-4, coat 10 μg MBPC.3/ml) was 191 and 184. For the same substance, the “optical density (OD) ratio 492/620 nm (×10^3)” value (New Zealand rabbits; plate 4, rabbit serum 10^-2, coat 0.5 μg MBPC.3/ml) was 424 and 425, the “optical density (OD) ratio 492/620 nm (×10^3)” value (New Zealand rabbits; plate 4, rabbit serum 10^-2, coat 1 μg MBPC.3/ml) was 419 and 447 and the “optical density (OD) ratio 492/620 nm (×10^3)” value (New Zealand rabbits; plate 4, rabbit serum 10^-2, coat 5 μg MBPC.3/ml) was 749 and 792. The “optical density (OD) ratio 492/620 nm (×10^3)” value (New Zealand rabbits; plate 4, rabbit serum 10^-2, coat 10 μg MBPC.3/ml) was 849 and 843, the “optical density (OD) ratio 492/620 nm (×10^3)” value (New Zealand rabbits; plate 4, rabbit serum 10^-3, coat 0.5 μg MBPC.3/ml) was 163 and 154 and the “optical density (OD) ratio 492/620 nm (×10^3)” value (New Zealand rabbits; plate 4, rabbit serum 10^-3, coat 1 μg MBPC.3/ml) was 221 and 151. For the same substance, the “optical density (OD) ratio 492/620 nm (×10^3)” value (New Zealand rabbits; plate 4, rabbit serum 10^-3, coat 5 μg MBPC.3/ml) was 310 and 304, the “optical density (OD) ratio 492/620 nm (×10^3)” value (New Zealand rabbits; plate 4, rabbit serum 10^-3, coat 10 μg MBPC.3/ml) was 332 and 314 and the “titers of anti-GPGRAF antibodies” value (New Zealand rabbits; rabbits injected) was “did not produce significant titers”. The block of fusion (HIV-1 (LAI)) was “able to block the fusion”, the “[3H] Thymidine Incorporation” value ([1]; Donor 1, Cand1) was 87000 cpm and the “[3H] Thymidine Incorporation” value ([1]; Donor 1, Cand2) was 100000 cpm. The “[3H] Thymidine Incorporation” value ([1]; Donor 1, PPD1) was 1300 cpm, the “[3H] Thymidine Incorporation” value ([1]; Donor 1, PPD2) was 3100 cpm and the “[3H] Thymidine Incorporation” value ([1]; Donor 2, Cand1) was 17000 cpm. For the same substance, the “[3H] Thymidine Incorporation” value ([1]; Donor 2, Cand2) was 11000 cpm, the “[3H] Thymidine Incorporation” value ([1]; Donor 2, PHA1) was 87000 cpm and the “[3H] Thymidine Incorporation” value ([1]; Donor 2, PHA2) was 95000 cpm. For the same substance, the “[3H] Thymidine Incorporation” value ([1]; Donor 2, PPD1) was 24000 cpm, the “[3H] Thymidine Incorporation” value ([1]; Donor 2, PPD2) was 27000 cpm and the “[3H] Thymidine Incorporation” value ([1]; Donor 3, Cand1) was 3200 cpm.
